Measured values published in PMC7352787.

Tests used:
[1] = biological target: membrane-bound HLA-G*01:03 on K562 cells (human); assay: flow cytometry on cells; 1 x 10^6 K562 cells presenting HLA-G*01:0x incubated with 200 nM purified sNKG2A/CD94 or sNKG2C/CD94 for 2 h at 37 °C; detection by anti-V5-tag antibody and PE-coupled secondary antibody; three technical replicates
[2] = biological target: membrane-bound HLA-G*01:04 on K562 cells (human); assay: as above

“recombinant soluble heterodimeric NKG2A/CD94 (from UniProt P26715 1-233; Q13241 1-179) (complex)” was tested, and the percent binding (flow cytometry) [1] was 17.4% and the percent binding (flow cytometry) [2] was 57.7%.
